Assay results from patent publication US20260250381A1.

T1: human TREM2 (human) (UniProt Q9NZC2)
T1 sequence (looked up): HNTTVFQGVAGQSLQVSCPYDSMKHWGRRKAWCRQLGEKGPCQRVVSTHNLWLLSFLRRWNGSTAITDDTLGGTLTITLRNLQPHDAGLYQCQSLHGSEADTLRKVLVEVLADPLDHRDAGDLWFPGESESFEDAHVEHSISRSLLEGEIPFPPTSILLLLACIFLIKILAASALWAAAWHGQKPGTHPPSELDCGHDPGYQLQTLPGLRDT


Assays:
human TREM2 (human) [1] = target: T1, human TREM2 (human); test: 2nd screen, 2 nM Ab
human TREM2 (human) [2] = target: T1, human TREM2 (human); test: 1st screen, 10 nM Ab
human TREM2 (human) [3] = target: T1, human TREM2 (human); test: 2nd screen, 10 nM Ab
human TREM2 (human) [4] = target: T1, human TREM2 (human); test: 1st screen, 110 nM Ab
human TREM2 (human) [5] = target: T1, human TREM2 (human); test: 2nd screen, 100 nM Ab

Binder | Binding Signal (fold over 6E7 parental antibody) (human TREM2 (human) [1]) [fold] | Binding Signal (fold over 6E7 parental antibody) (human TREM2 (human) [2]) [fold] | Binding Signal (fold over 6E7 parental antibody) (human TREM2 (human) [3]) [fold] | Binding Signal (fold over 6E7 parental antibody) (human TREM2 (human) [4]) [fold] | Binding Signal (fold over 6E7 parental antibody) (human TREM2 (human) [5]) [fold]
6E7 variant V23 (antibody, V domains shown) VH: EVQLVQSGAEVKKPGESLKISCKGSGYSFTSYWIAWVRQMPGKGLEWMGIIYPGDSDTRYSPSFQGQVTISADKSISTAYLQWSSLKASDTAMYFCARQRTFYYDSSDYFDYWGQGTLVTVSS VL: DIQMTQSPSSVSASVGDRVTITCRASQGISSWLAWYQQKPGKAPKLLIYAASSLQNGVPSRFSGSGSGTDFTLTISSLQPEDFATYFCQQADSFPLTFGQGTKLEIK | – | – | – | 0.4 | 0.4
6E7 variant V18 (antibody, V domains shown) VH: EVQLVQSGAEVKKPGESLKISCKGSGYSFTSYHIAWVRQMPGKGLEWMGIIYPGDSDTRYSPSFQGQVTISADKSISTAYLQWSSLKASDTAMYFCARQRTFYYDSSDYFDYWGQGTLVTVSS VL: DIQMTQSPSSVSASVGDRVTITCRASQGISSWLAWYQQKPGKAPKLLIYAASSLQNGVPSRFSGSGSGTDFTLTISSLQPEDFATYFCQQADSFPRTFGQGTKLEIK | – | – | – | 0.17 | 0.42
6E7 variant V30 (antibody, V domains shown) VH: EVQLVQSGAEVKKPGESLKISCKGSGSSFTSYWIAWVRQMPGKGLEWMGIIYPGDSDTRYSPSFQGQVTISADKSISTAYLQWSSLKASDTAMYFCARQRTFYYDSSDYFDYWGQGTLVTVSS VL: DIQMTQSPSSVSASVGDRVTITCRASQGISSWLAWYQQKPGKAPKLLIYAASSLQNGVPSRFSGSGSGTDFTLTISSLQPEDFATYFCQQADSFPRTFGQGTKLEIK | – | – | – | 0.79 | 0.72
6E7 variant V22 (antibody, V domains shown) VH: EVQLVQSGAEVKKPGESLKISCKGSGYSFTSYWIAWVRQMPGKGLEWMGIIYPGDSDTRYSPSFQGQVTISADKSISTAYLQWSSLKASDTAMYFCARQRTFYYDSSDYFDYWGQGTLVTVSS VL: DIQMTQSPSSVSASVGDRVTITCRASQGISSWLAWYQQKPGKAPKLLIYRASSLQNGVPSRFSGSGSGTDFTLTISSLQPEDFATYFCQQADSFPRTFGQGTKLEIK | – | – | – | 0.3 | 0.71
6E7 variant V20 (antibody, V domains shown) VH: EVQLVQSGAEVKKPGESLKISCKGSGYSFTSYWIAWVRQMPGKGLEWMGRIYPGDSDTRYSPSFQGQVTISADKSISTAYLQWSSLKASDTAMYFCARQRTFYYDSSDYFDYWGQGTLVTVSS VL: DIQMTQSPSSVSASVGDRVTITCRASQGISSWLAWYQQKPGKAPKLLIYAASSLQNGVPSRFSGSGSGTDFTLTISSLQPEDFATYFCQQADSFPRTFGQGTKLEIK | – | – | – | 0.18 | 0.52
6E7 variant V21 (antibody, V domains shown) VH: EVQLVQSGAEVKKPGESLKISCKGSGYSFTSYWIAWVRQMPGKGLEWMGIIYPGDSDTRYSPSFQGQVTISADKSISTAYLQWSSLKASDTAMYFCARQRTFYYDSSDFFDYWGQGTLVTVSS VL: DIQMTQSPSSVSASVGDRVTITCRASQGISSWLAWYQQKPGKAPKLLIYAASSLQNGVPSRFSGSGSGTDFTLTISSLQPEDFATYFCQQADSFPRTFGQGTKLEIK | – | – | – | 0.76 | 0.68
6E7 variant V11 (antibody, V domains shown) VH: EVQLVQSGAEVKKPGESLKISCKGSGYSFTSYWIAWVRQMPGKGLEWMGIIYPGDSDTRYSPSFQGQVTISADKSISTAYLQWSSLKASDTAMYFCARQRTFYYDSSDYFDYWGQGTLVTVSS VL: DIQMTQSPSSVSASVGDRVTITCRASQGISSWLAWYQQKPGKAPKLLIYAASSLQNGVPSRFSGSGSGTDFTLTISSLQPEDFATYFCQQAASFPRTFGQGTKLEIK | – | – | – | 0.79 | 0.42
6E7 variant V19 (antibody, V domains shown) VH: EVQLVQSGAEVKKPGESLKISCKGSGYSFTSSWIAWVRQMPGKGLEWMGIIYPGDSDTRYSPSFQGQVTISADKSISTAYLQWSSLKASDTAMYFCARQRTFYYDSSDYFDYWGQGTLVTVSS VL: DIQMTQSPSSVSASVGDRVTITCRASQGISSWLAWYQQKPGKAPKLLIYAASSLQNGVPSRFSGSGSGTDFTLTISSLQPEDFATYFCQQADSFPRTFGQGTKLEIK | – | – | – | 0.59 | 0.48

Results, then the binder that gave them:

Binding Signal (fold over 6E7 parental antibody) (human TREM2 (human) [1]) [fold] | Binding Signal (fold over 6E7 parental antibody) (human TREM2 (human) [2]) [fold] | Binding Signal (fold over 6E7 parental antibody) (human TREM2 (human) [3]) [fold] | Binding Signal (fold over 6E7 parental antibody) (human TREM2 (human) [4]) [fold] | Binding Signal (fold over 6E7 parental antibody) (human TREM2 (human) [5]) [fold] | Binder
4 | 3.38 | 3.44 | – | – | 6E7 variant V36 (antibody, V domains shown) VH: EVQLVQSGAEVKKPGESLKISCKGSGYSFTSYWLAWVRQMPGKGLEWMGIIYPGDSDTRYSPSFQGQVTISADKSISTAYLQWSSLKASDTAMYFCARSRTFYYDSSDYFDYWGQGTLVTVSS VL: DIQMTQSPSSVSASVGDRVTITCRASQGISSWLAWYQQKPGKAPKLLIYAASSRQNGVPSRFSGSGSGTDFTLTISSLQPEDFATYFCQQADSYPRTFGQGTKLEIK
3.44 | 4.34 | 4.36 | – | – | 6E7 variant V38 (antibody, V domains shown) VH: EVQLVQSGAEVKKPGESLKISCKGSGYSFGSYWIAWVRQMPGKGLEWMGIIYPGDSDVRYSPSFQGQVTISADKSISTAYLQWSSLKASDTAMYFCARQRTFYYDSSDYFDYWGQGTLVTVSS VL: DIQMTQSPSSVSASVGDRVTITCRASQGISSWLAWYQQKPGKAPKLLIYAASSRQNGVPSRFSGSGSGTDFTLTISSLQPEDFATYFCQQADSHPRTFGQGTKLEIK
– | – | – | 0.82 | 0.89 | 6E7 variant V32 (antibody, V domains shown) VH: EVQLVQSGAEVKKPGESLKISCKGSGYSFTSYWIAWVRQMPGKGLEWMGIIYPGDSDTRYSNSFQGQVTISADKSISTAYLQWSSLKASDTAMYFCARQRTFYYDSSDYFDYWGQGTLVTVSS VL: DIQMTQSPSSVSASVGDRVTITCRASQGISSWLAWYQQKPGKAPKLLIYAASSLQNGVPSRFSGSGSGTDFTLTISSLQPEDFATYFCQQADSFPRTFGQGTKLEIK
3.69 | 3.46 | 3.49 | – | – | 6E7 variant V37 (antibody, V domains shown) VH: EVQLVQSGAEVKKPGESLKISCKGSGYSHTSYWIAWVRQMPGKGLEWMGIIYPGDSDTRYSPSFAGQVTISADKSISTAYLQWSSLKASDTAMYFCARSRTFYYDSSDYFDYWGQGTLVTVSS VL: DIQMTQSPSSVSASVGDRVTITCRASQGISSWLAWYQQKPGKAPKLLIYAASSLQWGVPSRFSGSGSGTDFTLTISSLQPEDFATYFCQQADSYPRTFGQGTKLEIK
– | – | – | 0.23 | 0.34 | 6E7 variant V33 (antibody, V domains shown) VH: EVQLVQSGAEVKKPGESLKISCKGSGYSFTSYWIAWVRQMPGKGLEWMGIIYPGDSDTRYSPSFQGQVTISADKSISTAYLQWSSLKASDTAMYFCARQRTFYGDSSDYFDYWGQGTLVTVSS VL: DIQMTQSPSSVSASVGDRVTITCRASQGISSWLAWYQQKPGKAPKLLIYAASSLQNGVPSRFSGSGSGTDFTLTISSLQPEDFATYFCQQADSFPRTFGQGTKLEIK
– | – | – | 0.61 | 0.73 | 6E7 variant V31 (antibody, V domains shown) VH: EVQLVQSGAEVKKPGESLKISCKGSGYSFTSYWIAWVRQMPGKGLEWMGIIYPGDSETRYSPSFQGQVTISADKSISTAYLQWSSLKASDTAMYFCARQRTFYYDSSDYFDYWGQGTLVTVSS VL: DIQMTQSPSSVSASVGDRVTITCRASQGISSWLAWYQQKPGKAPKLLIYAASSLQNGVPSRFSGSGSGTDFTLTISSLQPEDFATYFCQQADSFPRTFGQGTKLEIK
